{
  "source": "paper PMC8062757",
  "origin": "cited, not measured here",
  "molecular_target": "Myostatin (Gallus gallus) (UniProt O42220)",
  "sequence (O42220 267-375)": "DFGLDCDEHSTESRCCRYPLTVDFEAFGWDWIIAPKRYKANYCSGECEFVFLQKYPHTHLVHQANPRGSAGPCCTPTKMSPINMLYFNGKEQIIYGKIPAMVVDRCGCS",
  "data": [
    {"substance": "Follistatin (from UniProt Q90844)", "values": [
      {"measurement": "Kd", "value": 0.584, "unit": "nM"}
    ]}
  ]
}
